Test results taken from article PMC9352680, “A comprehensive thermodynamic model for RNA binding by the Saccharomyces cerevisiae Pumilio protein PUF4”.

Biological target: T1, PUF4 RNA-binding domain (Saccharomyces cerevisiae, UniProt P25339 537-888)
T1 sequence: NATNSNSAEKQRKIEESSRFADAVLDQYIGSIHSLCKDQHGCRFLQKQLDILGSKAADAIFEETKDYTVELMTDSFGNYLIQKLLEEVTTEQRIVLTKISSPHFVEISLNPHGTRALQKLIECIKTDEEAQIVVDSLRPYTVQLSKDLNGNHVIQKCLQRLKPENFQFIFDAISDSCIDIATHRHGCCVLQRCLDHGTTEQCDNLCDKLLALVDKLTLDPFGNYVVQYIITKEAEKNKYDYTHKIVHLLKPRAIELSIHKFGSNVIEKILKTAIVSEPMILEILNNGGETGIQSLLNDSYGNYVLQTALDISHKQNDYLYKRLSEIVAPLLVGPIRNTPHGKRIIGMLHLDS
Test: Mg; RNA-MaP; 20 mM Na-HEPES pH 7.4, 30 mM KOAc, 0.75 mM MgCl2, 0.1% Tween-20, 5% glycerol, 0.1 mg/mL BSA, 2 mM DTT; 25 C; 0.0125-409.6 nM protein
Conditions: tags: N-His6-TEV cleaved; C-SNAP kept, Cy3B-labelled; label: tethered on chip by stalled RNA polymerase

UCUCUUUGUACACGGUCUCUU (ssRNA) [Ic_S1_P4E.1_K4.1_C4.1_H4.1_A4.1_[T5C]_[T7C]_F4.1_[T8G]_[A9G]_T4.1] gave a Kd of 468 nM.

In the case of UCUCUUUGUACACGCUCUCUU (ssRNA) [Ic_S1_P4E.1_K4.1_C4.1_H4.1_A4.1_[T5C]_[T7C]_F4.1_[T8G]_[A9C]_T4.1], the Kd is reported as 145 nM.

UCUCUUUGUACUACAUCUCUU (ssRNA) [Ic_S1_P4E.1_K4.1_C4.1_H4.1_A4.1_[T5C]_[A6T]_[T7A]_F4.1_[T8C]_T4.1] showed a Kd of 140 nM.

For UCUCUUUGUACUUGAUCUCUU (ssRNA) [Ic_S1_P4E.1_K4.1_C4.1_H4.1_A4.1_[T5C]_[A6T]_F4.1_[T8G]_T4.1], the Kd was 465 nM.

UCUCUUUGUACAGUUUCUCUU (ssRNA) [Ic_S1_P4E.1_K4.1_C4.1_H4.1_A4.1_[T5C]_[T7G]_F4.1_[A9T]_T4.1] was tested, and the Kd was 13.3 nM.

UCUCUUUGUACAGUCUCUCUU (ssRNA) [Ic_S1_P4E.1_K4.1_C4.1_H4.1_A4.1_[T5C]_[T7G]_F4.1_[A9C]_T4.1] gave a Kd of 17 nM.

With UCUCUUUGUACAGCGUCUCUU (ssRNA) [Ic_S1_P4E.1_K4.1_C4.1_H4.1_A4.1_[T5C]_[T7G]_F4.1_[T8C]_[A9G]_T4.1] the Kd was 112 nM.

UCUCUUUGUACUCACUCUCUU (ssRNA) [Ic_S1_P4E.1_K4.1_C4.1_H4.1_A4.1_[T5C]_[A6T]_[T7C]_F4.1_[T8A]_[A9C]_T4.1] showed a Kd of 1060 nM.

In the case of UCUCUUUGUACUAACUCUCUU (ssRNA) [Ic_S1_P4E.1_K4.1_C4.1_H4.1_A4.1_[T5C]_[A6T]_[T7A]_F4.1_[T8A]_[A9C]_T4.1], the Kd is reported as 330 nM.

UCUCUUUGUACAGCUUCUCUU (ssRNA) [Ic_S1_P4E.1_K4.1_C4.1_H4.1_A4.1_[T5C]_[T7G]_F4.1_[T8C]_[A9T]_T4.1] showed a Kd of 78.3 nM.

With UCUCUUUGUACUCCUUCUCUU (ssRNA) [Ic_S1_P4E.1_K4.1_C4.1_H4.1_A4.1_[T5C]_[A6T]_[T7C]_F4.1_[T8C]_[A9T]_T4.1] the Kd was 407 nM.

Work on UCUCUUUGUACUUUUUCUCUU (ssRNA) [Ic_S1_P4E.1_K4.1_C4.1_H4.1_A4.1_[T5C]_[A6T]_F4.1_[A9T]_T4.1] yielded a Kd of 19.2 nM.

With UCUCUUUGUACUAAAUCUCUU (ssRNA) [Ic_S1_P4E.1_K4.1_C4.1_H4.1_A4.1_[T5C]_[A6T]_[T7A]_F4.1_[T8A]_T4.1] the Kd was 69.7 nM.

In the case of UCUCUUUGUACUUCUUCUCUU (ssRNA) [Ic_S1_P4E.1_K4.1_C4.1_H4.1_A4.1_[T5C]_[A6T]_F4.1_[T8C]_[A9T]_T4.1], the Kd is reported as 75.2 nM.

In the case of UCUCUUUGUACACUCUCUCUU (ssRNA) [Ic_S1_P4E.1_K4.1_C4.1_H4.1_A4.1_[T5C]_[T7C]_F4.1_[A9C]_T4.1], the Kd is reported as 8.95 nM.

With UCUCUUUGUACUUGUUCUCUU (ssRNA) [Ic_S1_P4E.1_K4.1_C4.1_H4.1_A4.1_[T5C]_[A6T]_F4.1_[T8G]_[A9T]_T4.1] the Kd was 51.9 nM.

Work on UCUCUUUGUACACAAUCUCUU (ssRNA) [Ic_S1_P4E.1_K4.1_C4.1_H4.1_A4.1_[T5C]_[T7C]_F4.1_[T8A]_T4.1] yielded a Kd of 17.1 nM.

For UCUCUUUGUACACUUUCUCUU (ssRNA) [Ic_S1_P4E.1_K4.1_C4.1_H4.1_A4.1_[T5C]_[T7C]_F4.1_[A9T]_T4.1], the Kd was 7.32 nM.

UCUCUUUGUACUACCUCUCUU (ssRNA) [Ic_S1_P4E.1_K4.1_C4.1_H4.1_A4.1_[T5C]_[A6T]_[T7A]_F4.1_[T8C]_[A9C]_T4.1] gave a Kd of 478 nM.

UCUCUUUGUACUUUCUCUCUU (ssRNA) [Ic_S1_P4E.1_K4.1_C4.1_H4.1_A4.1_[T5C]_[A6T]_F4.1_[A9C]_T4.1] gave a Kd of 39.6 nM.

UCUCUUUGUACUUGCUCUCUU (ssRNA) [Ic_S1_P4E.1_K4.1_C4.1_H4.1_A4.1_[T5C]_[A6T]_F4.1_[T8G]_[A9C]_T4.1] gave a Kd of 414 nM.

For UCUCUUUGUACUAGCUCUCUU (ssRNA) [Ic_S1_P4E.1_K4.1_C4.1_H4.1_A4.1_[T5C]_[A6T]_[T7A]_F4.1_[T8G]_[A9C]_T4.1], the Kd was 643 nM.

UCUCUUUGUACUGUGUCUCUU (ssRNA) [Ic_S1_P4E.1_K4.1_C4.1_H4.1_A4.1_[T5C]_[A6T]_[T7G]_F4.1_[A9G]_T4.1] was tested, and the Kd was 50.5 nM.

For UCUCUUUGUACUAUUUCUCUU (ssRNA) [Ic_S1_P4E.1_K4.1_C4.1_H4.1_A4.1_[T5C]_[A6T]_[T7A]_F4.1_[A9T]_T4.1], the Kd was 9.22 nM.

Work on UCUCUUUGUACUAUCUCUCUU (ssRNA) [Ic_S1_P4E.1_K4.1_C4.1_H4.1_A4.1_[T5C]_[A6T]_[T7A]_F4.1_[A9C]_T4.1] yielded a Kd of 13.8 nM.

In the case of UCUCUUUGUACUCAGUCUCUU (ssRNA) [Ic_S1_P4E.1_K4.1_C4.1_H4.1_A4.1_[T5C]_[A6T]_[T7C]_F4.1_[T8A]_[A9G]_T4.1], the Kd is reported as 738 nM.

For UCUCUUUGUACUCUAUCUCUU (ssRNA) [Ic_S1_P4E.1_K4.1_C4.1_H4.1_A4.1_[T5C]_[A6T]_[T7C]_F4.1_T4.1], the Kd was 3.48 nM.

With UCUCUUUGUACUCAUUCUCUU (ssRNA) [Ic_S1_P4E.1_K4.1_C4.1_H4.1_A4.1_[T5C]_[A6T]_[T7C]_F4.1_[T8A]_[A9T]_T4.1] the Kd was 150 nM.

With UCUCUUUGUACUCCGUCUCUU (ssRNA) [Ic_S1_P4E.1_K4.1_C4.1_H4.1_A4.1_[T5C]_[A6T]_[T7C]_F4.1_[T8C]_[A9G]_T4.1] the Kd was 969 nM.

UCUCUUAGUAUAUUUCUCUU (ssRNA) [Ib_S1_P3E.1_K3.1_C3.1_H3.1_[T1A]_A3.1_F3.1_[A8T]_T3.1] gave a Kd of 1220 nM.

UCUCUUUGUACAGCAUCUCUU (ssRNA) [Ic_S1_P4E.1_K4.1_C4.1_H4.1_A4.1_[T5C]_[T7G]_F4.1_[T8C]_T4.1] showed a Kd of 38.5 nM.

UCUCUUCGUAUAUUUCUCUU (ssRNA) [Ib_S1_P3E.1_K3.1_C3.1_H3.1_[T1C]_A3.1_F3.1_[A8T]_T3.1] gave a Kd of 830 nM.

UCUCUUUGUACUAUAUCUCUU (ssRNA) [Ic_S1_P4E.1_K4.1_C4.1_H4.1_A4.1_[T5C]_[A6T]_[T7A]_F4.1_T4.1] was tested, and the Kd was 1.28 nM.

UCUCUUUGUACUUCGUCUCUU (ssRNA) [Ic_S1_P4E.1_K4.1_C4.1_H4.1_A4.1_[T5C]_[A6T]_F4.1_[T8C]_[A9G]_T4.1] gave a Kd of 424 nM.

With UCUCUUUGUACACUGUCUCUU (ssRNA) [Ic_S1_P4E.1_K4.1_C4.1_H4.1_A4.1_[T5C]_[T7C]_F4.1_[A9G]_T4.1] the Kd was 5.05 nM.

For UCUCUUUGUACUUAGUCUCUU (ssRNA) [Ic_S1_P4E.1_K4.1_C4.1_H4.1_A4.1_[T5C]_[A6T]_F4.1_[T8A]_[A9G]_T4.1], the Kd was 43 nM.

In the case of UCUCUUUGUACACCCUCUCUU (ssRNA) [Ic_S1_P4E.1_K4.1_C4.1_H4.1_A4.1_[T5C]_[T7C]_F4.1_[T8C]_[A9C]_T4.1], the Kd is reported as 118 nM.

In the case of UCUCUUUGUACUGUAUCUCUU (ssRNA) [Ic_S1_P4E.1_K4.1_C4.1_H4.1_A4.1_[T5C]_[A6T]_[T7G]_F4.1_T4.1], the Kd is reported as 5.91 nM.

Binder UCUCUUUGUACUCCCUCUCUU (ssRNA) [Ic_S1_P4E.1_K4.1_C4.1_H4.1_A4.1_[T5C]_[A6T]_[T7C]_F4.1_[T8C]_[A9C]_T4.1] has a Kd of 508 nM.

In the case of UCUCUUUGUACAGUGUCUCUU (ssRNA) [Ic_S1_P4E.1_K4.1_C4.1_H4.1_A4.1_[T5C]_[T7G]_F4.1_[A9G]_T4.1], the Kd is reported as 16.5 nM.

UCUCUUUGUACUCUGUCUCUU (ssRNA) [Ic_S1_P4E.1_K4.1_C4.1_H4.1_A4.1_[T5C]_[A6T]_[T7C]_F4.1_[A9G]_T4.1] gave a Kd of 30.5 nM.

UCUCUUUGUACUCUUUCUCUU (ssRNA) [Ic_S1_P4E.1_K4.1_C4.1_H4.1_A4.1_[T5C]_[A6T]_[T7C]_F4.1_[A9T]_T4.1] showed a Kd of 33.7 nM.

Work on UCUCUUUGUACUCGCUCUCUU (ssRNA) [Ic_S1_P4E.1_K4.1_C4.1_H4.1_A4.1_[T5C]_[A6T]_[T7C]_F4.1_[T8G]_[A9C]_T4.1] yielded a Kd of 972 nM.

With UCUCUUUGUACUUGGUCUCUU (ssRNA) [Ic_S1_P4E.1_K4.1_C4.1_H4.1_A4.1_[T5C]_[A6T]_F4.1_[T8G]_[A9G]_T4.1] the Kd was 623 nM.

Work on UCUCUUUGUACACGAUCUCUU (ssRNA) [Ic_S1_P4E.1_K4.1_C4.1_H4.1_A4.1_[T5C]_[T7C]_F4.1_[T8G]_T4.1] yielded a Kd of 60.9 nM.

UCUCUUUGUAUGUAUCUCUU (ssRNA) [Ic_S1_P3E.1_K3.1_C3.1_H3.1_A3.1_[A6G]_F3.1_T3.1] gave a Kd of 66.5 nM.

UCUCUUGGUAUAUUUCUCUU (ssRNA) [Ib_S1_P3E.1_K3.1_C3.1_H3.1_[T1G]_A3.1_F3.1_[A8T]_T3.1] showed a Kd of 1250 nM.

Binder UCUCUUUGUACACAUUCUCUU (ssRNA) [Ic_S1_P4E.1_K4.1_C4.1_H4.1_A4.1_[T5C]_[T7C]_F4.1_[T8A]_[A9T]_T4.1] has a Kd of 22.6 nM.

UCUCUUUGUACACCGUCUCUU (ssRNA) [Ic_S1_P4E.1_K4.1_C4.1_H4.1_A4.1_[T5C]_[T7C]_F4.1_[T8C]_[A9G]_T4.1] gave a Kd of 407 nM.

For UCUCUUUGUACUUAUUCUCUU (ssRNA) [Ic_S1_P4E.1_K4.1_C4.1_H4.1_A4.1_[T5C]_[A6T]_F4.1_[T8A]_[A9T]_T4.1], the Kd was 34.1 nM.

For UCUCUUUAUAUAUGUCUCUU (ssRNA) [Ib_S1_P3E.1_K3.1_C3.1_H3.1_[G2A]_A3.1_F3.1_[A8G]_T3.1], the Kd was greater than 2300 nM.
